Experimental data from patent US20180215804A1.
pKd: −log10 of the molar value.

Experiments:
[1] = target: CD28/GFP fusion protein on transfected HEK293T cells (UniProt P10747); test: flow cytometry contour plot, CD28/GFP cells co-incubated with B7-2C/Cherry cells, no peptide (negative control)
[2] = target: CD28/GFP fusion protein on transfected HEK293T cells (UniProt P10747); test: competition: flow cytometry contour plot, CD28/GFP cells co-incubated with B7-2/Cherry cells in the presence of p2TA at 1 µg ml-1 (16.0 % without peptide, Fig. 6D)
CD28-Fc (human) = CD28-Fc (human) (UniProt P10747); test: not stated at that place; binding to human CD28 (SPR with CD28-Fc is the only affinity experiment of the filing)
[3] = target: CD28/GFP fusion protein on transfected HEK293T cells (UniProt P10747); test: competition: flow cytometry contour plot, CD28/GFP cells co-incubated with B7-2/Cherry cells in the presence of p2TA at 0.3 µg ml-1 (16.0 % without peptide, Fig. 6D)

Substance | percent double labeled cells (upper right quadrant) [1] [%] | percent double labeled cells (upper right quadrant) at 1 µg ml-1 p2TA [2] [%] | pKd (CD28-Fc (human)) | percent double labeled cells (upper right quadrant) at 0.3 µg ml-1 p2TA [3] [%]
B7-2C/Cherry fusion protein on transfected HEK293T cells (from UniProt P42081 24-329) (ligand) | 1.5 |  |  | 
(D-Ala)-p2TA-(D-Ala) (peptide) |  | 8.1 | 5.70 | 10.3
